Test results from publication PMC11019291.

Molecular target: SARS-CoV-2 nucleocapsid protein (N protein) (SARS-CoV-2, UniProt P0DTC9)
Experiment: SERS (surface-immobilized aptamer)
Conditions: protein: recombinant; tags: C-terminal His6 (pET26); N-terminal PelB signal and vector residues

AAAAACGCGCGTATTCCTTAGGGGCACCGCTACACGCGCG (ssDNA, 5'-thiol) [anti-N DNA aptamer]
binding result: binds
